Key:
[1] = molecular target: T1, human FcRn (human, UniProt P55899 24-290; P61769 21-119, limits assumed); assay: SPR Biacore, pH 7.0
T1 construct: also called human neonatal Fc receptor
Method: (§1) The binding between the antibody and human FcRn under a neutral condition (pH 7.0) was analyzed with a BIACORE™ system.
T1 sequence (P55899 24-290 limits assumed, chain 1 of 2): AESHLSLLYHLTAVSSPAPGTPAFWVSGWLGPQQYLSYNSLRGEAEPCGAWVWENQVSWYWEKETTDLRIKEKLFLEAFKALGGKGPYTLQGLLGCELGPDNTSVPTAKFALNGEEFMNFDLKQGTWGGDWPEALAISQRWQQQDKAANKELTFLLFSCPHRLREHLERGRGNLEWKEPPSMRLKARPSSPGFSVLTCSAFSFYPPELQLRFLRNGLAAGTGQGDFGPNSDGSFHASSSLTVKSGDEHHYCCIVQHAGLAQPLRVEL
T1 sequence (P61769 21-119 limits assumed, chain 2 of 2): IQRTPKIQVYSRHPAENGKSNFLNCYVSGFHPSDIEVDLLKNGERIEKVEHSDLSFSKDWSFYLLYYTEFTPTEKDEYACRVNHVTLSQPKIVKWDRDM

[2] = molecular target: T2, FcγRIIb extracellular region (human, UniProt P31994 43-217); assay: SPR (Biacore), ratio of KD values
T2 construct: extracellular domain; for crystals expressed with kifunensine and trimmed with Endo F1; also called human FcγRIIb
T2 sequence (looked up): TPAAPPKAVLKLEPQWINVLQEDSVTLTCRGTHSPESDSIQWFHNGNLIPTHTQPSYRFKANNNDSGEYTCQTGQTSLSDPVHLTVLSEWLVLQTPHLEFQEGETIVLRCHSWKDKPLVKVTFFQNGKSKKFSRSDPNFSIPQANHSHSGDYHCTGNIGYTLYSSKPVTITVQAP

[3] = molecular target: T3, FcγRIIaR extracellular region (human, UniProt P12318 34-217); assay: SPR (Biacore), ratio of KD values
T3 construct: extracellular domain; also called FcγRIIa type R; FcγRIIa allotype R131
T3 sequence (looked up): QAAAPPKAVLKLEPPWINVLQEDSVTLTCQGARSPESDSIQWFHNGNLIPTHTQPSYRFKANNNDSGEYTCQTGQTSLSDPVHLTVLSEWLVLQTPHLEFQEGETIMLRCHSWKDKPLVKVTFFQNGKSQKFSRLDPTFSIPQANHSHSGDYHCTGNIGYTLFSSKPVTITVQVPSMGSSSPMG

[4] = molecular target: T4, human FcRn (human, UniProt P55899 24-290; P61769 21-119, limits assumed); assay: SPR (Biacore), pH 7.0
T4 construct: also called hFcRn
Method: as §1
T4 sequence (P55899 24-290 limits assumed, chain 1 of 2): as the sequence (P55899 24-290 limits assumed, chain 1 of 2) above
T4 sequence (P61769 21-119 limits assumed, chain 2 of 2): as the sequence (P61769 21-119 limits assumed, chain 2 of 2) above

[5] = molecular target: T5, mouse FcγRI (mouse, UniProt P26151 25-297); assay: SPR (Biacore)
T5 construct: also called mFcγRI
T5 sequence (looked up): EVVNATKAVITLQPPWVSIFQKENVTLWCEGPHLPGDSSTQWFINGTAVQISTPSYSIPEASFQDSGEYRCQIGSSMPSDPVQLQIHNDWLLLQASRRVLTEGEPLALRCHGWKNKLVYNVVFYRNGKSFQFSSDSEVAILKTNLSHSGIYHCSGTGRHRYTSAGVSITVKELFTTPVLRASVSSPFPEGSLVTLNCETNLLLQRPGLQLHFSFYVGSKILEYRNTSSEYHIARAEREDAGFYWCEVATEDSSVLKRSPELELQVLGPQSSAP

[6] = molecular target: T6, mouse FcγRIV (mouse, UniProt A0A0B4J1G0 21-203); assay: SPR (Biacore)
T6 construct: also called mFcγRIV; not shown: purification tag of the soluble receptor (probably a His tag)
T6 sequence: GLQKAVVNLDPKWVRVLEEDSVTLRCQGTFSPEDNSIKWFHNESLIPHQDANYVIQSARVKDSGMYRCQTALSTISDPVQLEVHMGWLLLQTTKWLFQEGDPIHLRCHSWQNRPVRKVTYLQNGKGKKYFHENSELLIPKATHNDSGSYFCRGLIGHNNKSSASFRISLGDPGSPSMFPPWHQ

B1: F414 (antibody, human IgG1, kappa)
heavy: QVQLQESGPGLVKPSETLSLTCAVSGHSISHDHAWSWVRQPPGEGLEWIGFISYSGITNYNPSLQGRVTISRDNSKNTLYLQMNSLRAEDTAVYYCARSLARTTAMDYWGEGTLVTVSSASTKGPSVFPLAPSSKSTSGGTAALGCLVKDYFPEPVTVSWNSGALTSGVHTFPAVLQSSGLYSLSSVVTVPSSSLGTQTYICNVNHKPSNTKVDKKVEPKSCDKTHTCPPCPAPELLGGPSVFLFPPKPKDTLMISRTVEVTCVVVDVSHEDPEVKFNWYVDGVEVHNAKTKPREEQYNSTYRVVSVLSVLHQDWLNGKEYKCKVSNKALPAPIEKTISKAKGQPREPQVYTLPPSRDELTKNQVSLTCLVKGFYPSDIAVEWESNGQPENNYKTTPPVLDSDGSFFLYSKLTVDKSRWQQGNVFSCSVLHEALHYHYTQKSLSLSP
light: not shown
notes: copies: 2 + 2
[1]
  Kd: 110 nM

B2: IL6R-BP478/IL6R-L (antibody)
heavy: QVQLQESGPGLVKPSETLSLTCAVSGHSISHDHAWSWVRQPPGEGLEWIGFISYSGITNYNPSLQGRVTISRDNSKNTLYLQMNSLRAEDTAVYYCARSLARTTAMDYWGEGTLVTVSSASTKGPSVFPLAPCSRSTSESTAALGCLVKDYFPEPVTVSWNSGALTSGVHTFPAVLQSSGLYSLSSVVTVPSSSLGTKTYTCNVDHKPSNTKVDKRVESKYGPPCPPCPAPDLLGDDSVFLFPPKPKDTLMISRTPEVTCVVVDVSDEDGEVKFNWYVDGVEVHNAKTKPREEQDNSTYRVVSVLTVLHQDWLNGKEYKCKVSNKALPRPIEKTISKAKGQPREPQVYTLPPSRDELTKNQVSLTCLVKGFYPSDIAVEWESNGQPENNYKTTPPVLDSDGSFFLYSKLTVDKSRWQQGNVFSCSVMHEALHNHYTQESLSLSP
light: not shown
notes: copies: 2 + 2
[2]
  fold binding relative to IL6R-BP230/IL6R-L: 1.1 times
[3]
  fold binding relative to IL6R-BP230/IL6R-L: 0.9 times

B3: F554 (antibody, human IgG1, kappa)
heavy: QVQLQESGPGLVKPSETLSLTCAVSGHSISHDHAWSWVRQPPGEGLEWIGFISYSGITNYNPSLQGRVTISRDNSKNTLYLQMNSLRAEDTAVYYCARSLARTTAMDYWGEGTLVTVSSASTKGPSVFPLAPSSKSTSGGTAALGCLVKDYFPEPVTVSWNSGALTSGVHTFPAVLQSSGLYSLSSVVTVPSSSLGTQTYICNVNHKPSNTKVDKKVEPKSCDKTHTCPPCPAPELLGGPKVFLFPPKPKDTLYITRTPEVTCVVVDVSHEDPEVKFNWYVDGVEVHNAKTKPREEQYNSTYRVVSVLTPLHQDWLNGKEYKCKVSNKALPAPIEKTISKAKGQPREPQVYTLPPSRDELTKNQVSLTCLVKGFYPSDIAVEWESNGQPENNYKTTPPVLDSDGSFFLYSKLTVDKSRWQQGNVFSCSVMHEALHYHYTQKSLSLSP
light: not shown
notes: copies: 2 + 2
[4]
  Kd: 28 nM

B4: VH3/L (WT)-mIgG1 (antibody)
heavy: QVQLQESGPGLVKPSETLSLTCAVSGHSISHDHAWSWVRQPPGEGLEWIGFISYSGITNYNPSLQGRVTISRDNSKNTLYLQMNSLRAEDTAVYYCARSLARTTAMDYWGEGTLVTVSSAKTTPPSVYPLAPGSAAQTNSMVTLGCLVKGYFPEPVTVTWNSGSLSSGVHTFPAVLQSDLYTLSSSVTVPSSTWPSETVTCNVAHPASSTKVDKKIVPRDCGCKPCICTVPEVSSVFIFPPKPKDVLTITLTPKVTCVVVDISKDDPEVQFSWFVDDVEVHTAQTQPREEQFNSTFRSVSELPIMHQDWLNGKEFKCRVNSAAFPAPIEKTISKTKGRPKAPQVYTIPPPKEQMAKDKVSLTCMITDFFPEDITVEWQWNGQPAENYKNTQPIMDTDGSYFVYSKLNVQKSNWEAGNTFTCSVLHEGLHNHHTEKSLSHSPGK
light: not shown
notes: copies: 2 + 2
[5]
  binding result: no binding
[6]
  binding result: no binding

From patent publication US20240279325A1 (Chugai, published 2024)
